These results are taken from PMC7076015 (2020).

B1: Flag-myc-hnRNP R (wild type) [not stated] / HA-KPNA7 [human] (parent complex)
chain 1: MANQVNGNAVQLKEEEEPMDTSSVTHTEHYKTLIEAGLPQKVAERLDEIFQTGLVAYVDLDERAIDALREFNEEGALSVLQQFKESDLSHVQNKSAFLCGVMKTYRQREKQGSKVQESTKGPDEAKIKALLERTGYTLDVTTGQRKYGGPPPDSVYSGVQPGIGTEVFVGKIPRDLYEDELVPLFEKAGPIWDLRLMMDPLSGQNRGYAFITFCGKEAAQEAVKLCDSYEIRPGKHLGVCISVANNRLFVGSIPKNKTKENILEEFSKVTEGLVDVILYHQPDDKKKNRGFCFLEYEDHKSAAQARRRLMSGKVKVWGNVVTVEWADPVEEPDPEVMAKVKVLFVRNLATTVTEEILEKSFSEFGKLERVKKLKDYAFVHFEDRGAAVKAMDEMNGKEIEGEEIEIVLAKPPDKKRKERQAARQASRSTAYEDYYYHPPPRMPPPIRGRGRGGGRGGYGYPPDYYGYEDYYDDYYGYDYHDYRGGYEDPYYGYDDGYAVRGRGGGRGGRGAPPPPRGRGAPPPRGRAGYSQRGAPLGPPRGSRGGRGGPAQQQRGRGSRGSRGNRGGNVGGKRKADGYNQPDSKRRQTNNQQNWGSQPIAQQPLQQGGDYSGNYGYNNDNQEFYQDTYGQQWK
chain 2: not shown

The variants in the assay derive from B1. As to the kind of experiment: co-immunoprecipitation (HA-IP, Flag western blot quantified); HEK293T(HA-KPNA7) cell extracts; input 2%, IP 30%; parent: 1. Background: In western blotting, separated proteins are transferred to a membrane and probed.
Turning to chain 1 K414A, chain 1 K415A, chain 1 R416A, the ratio to parent was determined as 0.43.

chain 1 K572A, chain 1 R573A, chain 1 K574A: the ratio to parent amounted to 0.21.

For chain 1 K584A, chain 1 R585A, chain 1 R586A, the ratio to parent stood at 0.2.
